Measurements as given in paper PMC8010718, “Direct coupling of oligomerization and oligomerization-driven endocytosis of the dopamine transporter to its conformational mechanics and activity” (The Journal of Biological Chemistry, 2021).

B1: YFP- and HA-epitope tagged dopamine transporter (YFP-HA-DAT), wild type [human] / itself (parent)
chain: MSKSKCSVGLMSSVVAPAKEPNAVGPKEVELILVKEQNGVQLTSSTLTNPRQSPVEAQDRETWGKKIDFLLSVIGFAVDLANVWRFPYLCYKNGGGAFLVPYLLFMVIAGMPLFYMELALGQFNREGAAGVWKICPILKGVGFTVILISLYVGFFYNVIIAWALHYLFSSFTTELPWIHCNNSWNSPNCSDAHPGDSSGDSSGLNDTFGTTPAAEYFERGVLHLHQSHGIDDLGPPRWQLTACLVLVIVLLYFSLWKGVKTSGKVVWITATMPYVVLTALLLRGVTLPGAIDGIRAYLSVDFYRLCEASVWIDAATQVCFSLGVGFGVLIAFSSYNKFTNNCYRDAIVTTSINSLTSFSSGFVVFSFLGYMAQKHSVPIGDVAKDGPGLIFIIYPEAIATLPLSSAWAVVFFIMLLTLGIDSAMGGMESVITGLIDEFQLLHRHRELFTLFIVLATFLLSLFCVTNGGIYVFTLLDHFAAGTSILFGVLIEAIGVAWFYGVGQFSDDIQQMTGQRPSLYWRLCWKLVSPCFLLFVVVVSIVTFRPPHYGAYIFPDWANALGWVIATSSMAMVPIYAAYKFCSLPGSFREKLAYAIAPEKDRELVDRGEVRQFTLRHWLKV

Variants of: B1
Assay: SDS-PAGE and immunoblotting with the GFP antibody, quantification of trimer band
Settings: AIM-100 20 μM, 2 h at 37 °C, PAE cells, read off a plot

screen value (fraction of total)	Variant
0.3	chain 1 I248F V249T L458F L459G

Same assay, conditions: AL3 20 μM, 2 h at 37 °C, PAE cells, read off a plot

screen value (fraction of total)	Variant
0.15	chain 1 I248F V249T L458F L459G

Same assay, conditions: AL4 20 μM, 2 h at 37 °C, PAE cells, read off a plot

screen value (fraction of total)	Variant
0.17	chain 1 I248F V249T L458F L459G

Same assay, conditions: AL8 20 μM, 2 h at 37 °C, PAE cells, read off a plot

screen value (fraction of total)	Variant
0.22	chain 1 I248F V249T L458F L459G

Same assay, conditions: vehicle, 2 h at 37 °C, PAE cells, read off a plot

screen value (fraction of total)	Variant
0.17	chain 1 I248F V249T L458F L459G
